In patent US11819540B2, “Methods for treating and preventing neutrophil-derived net toxicity and thrombosis” (CHILDREN'S MEDICAL CENTER CORPORATION, priority 2011, dated 2023):
“Also recorded” adds a separate entry of the source.

Legend:
[1] = tested on: TRALI in BALB/c mice; test: Two-event (LPS + anti-H-2Kd mAb) TRALI model; format: in vivo, mouse
Experimental: In order to determine the effect of anti-NET compounds as a treatment for TRALI, a mouse model of the 2-hit TRALI model was utilized. BALB/c male mice (8-10 week-old) were primed with an intraperitoneal injection of lipopolysaccharide (LPS) (0.1 or 0.5 mg/kg) 24 hours prior to challenge with anti-H2K^dmAb (clone 34-1-2s1, 1 mg/kg) or isotype control injected retro-orbitally. Before each injection mice were shortly anesthetized by inhalation of isoflurane. To measure the effect of DNaseI treatment on mice experiencing TRALI, mice received intranasal DNaseI (50 μg/mouse, 1 μg/ul) or 50 μl of the buffer-vehicle 10 minutes prior to the antibody injection.
The model was adapted from Looney et al. (2009).^20 Male BALB/c mice (8-10 week old) were primed with an i.p. injection of LPS (0.1 or 0.5 mg/kg, as indicated in the text) 24 hours prior to challenge with anti-H-2K^d mAb (clone 34-1-2s, 1 mg/kg) or isotype control injected retro-orbitally. In experiments involving DNase 1 treatment, mice that were injected with both LPS and the anti-H-2K^d mAb received i.n. DNase 1 (PULMOZYME®, Genentech, 50 μg/mouse, 1 μg/ul) 10 minutes before or 90 minutes after antibody injection. Control TRALI mice were injected with 50 μl of the DNase 1 vehicle-buffer in DNase 1 experiments. Blood collection, lung harvesting and arterial oxygen saturation measurements were all performed 2 hours after antibody injection. No event of TRALI-related death was recorded under these conditions in any of the treated mice.
Rectal temperatures were measured as an indicator of shock-like condition 2 hours post anti-H-2K^d infusion using a rectal temperature probe (MOUSEOX PLUS® system, STARR Life Sciences) connected to a POWERLAB™ data acquisition system (ADInstruments, USA).
Mouse peripheral blood counts were measured from EDTA (ethylenediaminetetraacetic acid)-anti-coagulated blood with a HEMAVET™ 950 veterinary hematology analyzer (Drew Scientific). This blood counter uses two different currents to analyze the cells. A low voltage current determines the volume and the number of cells (Coulter Impedance principle) and a high voltage current that passes through the cells generates information on their internal structure such as nucleus, fluid, granules and vacuoles.
Mice were sacrificed and intubated with a 24-gauge cannula after their tracheas were surgically isolated. The lungs were flushed three times with 0.8 ml of sterile PBS. BAL fluids were centrifuged for 5 minutes at 800 g. Protein concentration was quantified in the supernatant using the bicinchoninic acid method.
Blood arterial oxygen saturation was recorded 2 hours after anti-H-2K^d antibody injection, using a small rodent oxymeter sensor (MOUSE^OX™, STARR Life Sciences) mounted on the collar of each tested mouse. The 2 hour endpoint was used as per the model published by Looney and colleagues in 2009.^20-22
Mouse lungs were fixed by intratracheal infusion of 1.5% formaldehyde/1.5% glutaraldehyde in sodium cacodylate buffer (pH 7.35), excised and bathed in the same solution for 2 hours at 4° C. The fixed lungs were sliced into 0.5 mm sections; the sections were washed extensively in distilled water, frozen on a liquid-helium cooled copper block, freeze-dried at −80° C., and coated with 2 nm of platinum at a 45° angle with rotation and 10 nm of carbon without rotation. Tissue was removed from the metal casting using bleach (Austin's A-1-5.25% sodium hypochlorite), washed and picked up on formvar-coated 200 mesh copper grids. Grids were photographed in a JEOL-1200 EX electron microscope at 100 kV.

[2] = tested on: TRALI in BALB/c mice; test: Two-event (LPS + anti-H-2Kd mAb) TRALI model; format: in vivo, mouse; conditions: i.v. administration
[3] = intranasal DNaseI 50 μg/mouse 10 min prior to antibody

B1: rhDNase-1: recombinant human DNase-1 (Dornase alpha, Pulmozyme, Genentech) (protein, UniProt P24855 23-282, looked up)
Deoxyribonuclease-1: LKIAAFNIQTFGETKMSNATLVSYIVQILSRYDIALVQEVRDSHLTAVGKLLDNLNQDAPDTYHYVVSEPLGRNSYKERYLFVYRPDQVSAVDSYYYDDGCEPCGNDTFNREPAIVRFFSRFTEVREFAIVPLHAAPGDAVAEIDALYDVYLDVQEKWGLEDVMLMGDFNAGCSYVRPSQWSSIRLWTSPTFQWLIPDSADTTATPTHCAYDRIVVAGMLLRGAVVPDSALPFNFQAAYGLSDQLAQAISDHYPVEVMLK
rectal temperature (shock-like condition) ([1]; 2 hours after mAb infusion, DNase 1 as prophylaxis or treatment): normal
arterial oxygen saturation (mean and minimum) ([1]; DNase 1 i.n. 90 minutes after onset of TRALI (Post)): improves arterial oxygen saturation; also recorded: succeeded in correcting the defect in blood oxygenation
arterial oxygen saturation (mean and minimum) ([1]; DNase 1 i.n. pretreatment 10 min before antibody (Pre)): succeeded in correcting the defect in blood oxygenation; also recorded: more stable arterial blood oxygen saturation and improved transient hypoxia
down spikes in blood arterial oxygen saturation (transient hypoxia) ([1]; DNase 1 i.n. pretreatment vs vehicle buffer): significantly attenuated
TRALI outcome ([1]; inhalation, before or after TRALI onset): had a positive effect
fibrous material (NETs) in alveoli, electron microscopy ([1]; intranasal DNase 1 50 μg/mouse 10 min prior to antibody injection): absent; also recorded: prevents their alveolar accumulation; also recorded: no fibrous material could be detected
TRALI-induced decrease of platelet counts [1, 3]: diminished
TRALI-induced increase of BAL protein levels [1, 3]: diminished
TRALI outcome [2]: did not improve TRALI outcome
